We go through one molecule from article PMC4513857, “PRC2 regulates RNA polymerase III transcribed non-translated RNA gene transcription through EZH2 and SUZ12 interaction with TFIIIC complex” (Nucleic Acids Research, 2015).

This assay has as its target T1, GST-EZH2 fragment A, N-terminal region (Domain I + Domain II), aa 1-522 (UniProt Q15910 1-522).
T1 construct: Cloned in pGEX-4T-1; also called fragment A of EZH2; source: E. coli BL21, purified (Glutathione Sepharose 4B)
T1 sequence (looked up): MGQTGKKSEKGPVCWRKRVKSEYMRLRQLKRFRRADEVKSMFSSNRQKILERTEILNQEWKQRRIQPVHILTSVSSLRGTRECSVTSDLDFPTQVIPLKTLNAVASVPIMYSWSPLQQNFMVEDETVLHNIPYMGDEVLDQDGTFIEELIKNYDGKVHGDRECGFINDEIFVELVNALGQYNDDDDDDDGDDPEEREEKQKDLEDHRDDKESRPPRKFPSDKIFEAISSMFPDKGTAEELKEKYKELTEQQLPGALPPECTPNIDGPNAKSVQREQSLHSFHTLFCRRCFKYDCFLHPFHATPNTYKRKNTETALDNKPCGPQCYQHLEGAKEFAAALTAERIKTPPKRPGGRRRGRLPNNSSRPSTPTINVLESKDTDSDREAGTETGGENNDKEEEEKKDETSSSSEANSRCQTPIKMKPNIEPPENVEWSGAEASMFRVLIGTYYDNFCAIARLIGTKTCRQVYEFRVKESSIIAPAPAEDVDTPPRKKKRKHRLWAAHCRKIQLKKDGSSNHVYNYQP
The experiment in a line: pull-down; in vitro pull-down with purified proteins: GST-EZH2 (aa 1-522) and MBP-TFIIIC102 fragment C (aa 524-886). As to conditions: both partners purified.

B1: MBP-TFIIIC102 fragment C (aa 524-886) (domain or fragment, UniProt Q9Y5Q9 524-886, looked up)
chain: QDANAAQQELKLLLHRSTLLFSQGKMYGYVDTLLTMLAMLLKVAMNRAQVCLISSSKSGERHLYLIKVSRDKISDSNDQESANCDAKAIFAVLTSVLTKDDWWNLLLKAIYSLCDLSRFQEAELLVDSSLEYYSFYDDRQKRKELEYFGLSAAILDKNFRKAYNYIRIMVMENVNKPQLWNIFNQVTMHSQDVRHHRFCLRLMLKNPENHALCVLNGHNAFVSGSFKHALGQYVQAFRTHPDEPLYSFCIGLTFIHMASQKYVLRRHALIVQGFSFLNRYLSLRGPCQESFYNLGRGLHQLGLIHLAIHYYQKALELPPLVVEGIELDQLDLRRDIAYNLSLIYQSSGNTGMAQTLLYTYCSI
notes: source: purified
Regarding B1, the binding result is “binds”.
